Experimental findings from patent US20250122303A1, “TREATMENT AND PREVENTION OF CANCER USING HER3 ANTIGEN-BINDING MOLECULES” (Hummingbird Bioscience Pte. Ltd., priority 2021, published 2025) are described below.

One test has as its target T1, human EGFR (Homo sapiens, UniProt P00533).
T1 construct: purchased Sino Biological Inc., China
As to the kind of experiment: ELISA specificity, human EGFR. In kind it is binding. To be noted: antibody up to 10 μg/ml. As for the experimental part:
ELISAs were used to determine the binding specificity of the antibodies. The antibodies were analysed for binding to human HER3 polypeptide, as well as respective mouse, rat and monkey homologues of HER3 (Sino Biological Inc., China). The antibodies were also analysed for their ability to bind to human EGFR and human HER2 (Sino Biological Inc., China).
ELISAs were carried out according to standard protocols. Briefly, 96-well plates (Nunc, Denmark) were coated with 0.1 μg/ml of target polypeptide in phosphate-buffered saline (PBS) for 16 h at 4° C. After blocking for 1 h with 1% BSA in Tris buffer saline (TBS) at room temperature, the anti-HER3 antibody was serially diluted with the highest concentration being 10 μg/ml, and added to the plate. Post 1 h incubation at room temperature, plates were washed three times with TBS containing 0.05% Tween 20 (TBS-T) and were then incubated with a HRP-conjugated anti-His antibody (Life Technologies, Inc., USA) for 1 h at room temperature. […] The reaction was stopped with 2M H2SO4, and OD was measured at 450 nm.
The antibodies were analysed for their ability to bind to human HER3 polypeptide as well as human HER1 (EGFR) and human HER2 (Sino Biological Inc., China). […]
ELISAs were carried out according to standard protocols. […] The reaction was stopped with 2M H2SO4, and OD was measured at 450 nm.

In test [1] the target is T2, human HER3 (HEK293 HER3 O/E cells) (Homo sapiens, UniProt P21860).
T2 construct: expressed in transfected cells; host or cells: HEK293
The test is described as follows: Cell surface antigen-binding by flow cytometry. How it is done:
The cells were washed thrice with FACS buffer (PBS with 5 mM EDTA and 0.5% BSA) and resuspended in FITC-conjugated anti-FC antibody (Invitrogen, USA) for 40 min at 2-8° C. Cells were washed again and resuspended in 200 μL of FACS flow buffer (PBS with 5 mM EDTA) for flow cytometric analysis using MACSQuant 10 (Miltenyi Biotec, Germany). After acquisition, all raw data were analyzed using Flowlogic software. Cells were gated using forward and side scatter profile percentage of positive cells was determined for native and overexpressing cell populations.
The cells were washed with buffer (PBS with 2 mM EDTA and 0.5% BSA) and resuspended in FITC-conjugated anti-FC antibody (Invitrogen, USA) at 10 μg/ml for 20 min at 4° C. Cells were washed again and resuspended in 200 μL of FACS flow buffer (PBS with 5 mM EDTA) for flow cytometric analysis using MACSQuant 10 (Miltenyi Biotec, Germany). Unstained WT and transfected HEK293 cells were included in the analysis as negative controls. After acquisition, all raw data were analyzed using Flowlogic software. Cells were gated using forward and side scatter profile percentage of positive cells was determined for native and overexpressing cell populations.

Test [2] concerns SNU16 cell-line derived mouse gastric carcinoma model. As to the kind of experiment: SNU16 cell-line derived xenograft model. In kind it is in vivo. The settings on record: SNU16, IP biweekly 500 μg, 9 doses. As for the experimental part:
(§1) Tumor volumes were measured 3 times a week using a digital caliper and calculated using the formula [L ×W2/2]. Study End point was considered to have been reaches once the tumors of the control arm measured >1.5 cm in length.
The model was established by subcutaneous injection of 1×10^6 SNU16 cells into the right flank (n=6 mice per treatment group).
(§2) 10D1 was administered IP, biweekly at 500 μg per dose (for a total of 9 doses); a control treatment group received an equal volume of PBS.

The next test relates to N87 cells. As to the kind of experiment: CCK-8 proliferation assay, N87. To be noted: 5 days. The test is classed as cell-based, human. How it is done:
Briefly, N87 and FaDu cells were treated with serially diluted concentrations of anti-HER3 antibody 10D1, starting from 100 μg/ml with a 9-point half log dilution. Cell proliferation was measuring using the CCK-8 proliferation assay (Dojindo, Japan) after a period of 5 days, in accordance with the manufacturer's instructions. Briefly 1× CCK-8 solution was added to each well followed by incubation for 2 h at 37° C. The OD was then measured at 450 nm.

For test [3], the system named is FaDu cell-line derived mouse model of head and neck squamous cell carcinoma. The test is described as follows: FaDu cell-line derived xenograft model. In kind it is in vivo. As for the experimental part:
as §1
The model was established by subcutaneous injection of 1×10^6 FaDu cells into the right flanks of female NPG mice (NOD scid gamma phenotype; n=6 mice per treatment group).
10D1 was administered IP, weekly at 500 μg per dose (for a total of 4 doses). Control treatment groups received an equal volume of PBS, or the same dose of an isotype control antibody.
The model was established by subcutaneous injection of 1×10^6 FaDu cells into the right flanks of female NCr nude mice (n=6 mice per treatment group).
10D1 was administered IP, biweekly at 500 μg per dose (for a total of 8 doses); a control treatment group received an equal volume of PBS.
(§3) Tumour cells were inserted with matrigel subcutaneously into the right flanks of female NCr nude mice.
Murine tumour efficacy studies were performed using cell-line derived xenograft (CDX) models in mice. Female NCr nude mice (5-8 weeks old, 21-29 g) were subcutaneously implanted with N87, A549, FaDu, OvCAR8 cells. Treatment was initiated when tumours reached approximately 100 to 200 mm^3. […] Tumours were measured twice per week using a calliper and tumour volume (mm^3) was calculated. […]

Test [4] concerns OvCAR8 cell-line derived mouse model of ovarian carcinoma. As to the kind of experiment: OvCAR8 cell-line derived xenograft model. To be noted: OvCAR8, IP biweekly 500 μg, 9 doses. In kind it is in vivo. How it is done: as §1
The model was established by subcutaneous injection of 1×10^6 OvCAR8 cells into the right flanks of female NCr nude mice (n=6 mice per treatment group).
as §2, §3
Murine tumour efficacy studies were performed using cell-line derived xenograft (CDX) models in mice. Female NCr nude mice (5-8 weeks old, 21-29 g) were subcutaneously implanted with N87, A549, FaDu, OvCAR8 cells. Treatment was initiated when tumours reached approximately 100 to 200 mm^3. Vehicle (PBS) or therapeutic antibodies (25 mg/kg) were administered intraperitoneally (IP) at indicated time points (weekly FaDu and OvCAR8, twice weekly N87 and A549). Tumours were measured twice per week using a calliper and tumour volume (mm^3) was calculated. Each data point represents the mean tumour volume ±SEM (n=8 mice).

B1: 10D1: anti-HER3 antibody clone, VH SEQ ID NO:24, VL SEQ ID NO:74; [1] of Example 2.2 (antibody, V domains shown)
VH: DVQLQESGPDLVKPSQSLSLTCTVTGYSITSGYSWHWIRQFPGNKLEWMGSIHYSGGTNYNPSLKSRISITRDTSKNQFFLQLNSVTTEDTATYFCARMTTAPRYPFDYWGQGTTLTVSS
VL: DIVMTQSQKFMSTSVGDRVSVTCKASQIVGSNVAWYQQKPGQSPKPLIYSASYRYSGVPDRFTASGSGTDFTLTITNVQSEDLAEYFCQQYSSHPLTFGAGTKLELK
Regarding B1, the “binding to human EGFR (HER1)” value with human EGFR is given as “not to bind”. Moreover, the “extent of binding to human HER3-expressing cells” value in test [1] (10 μg/ml antibody) and in test [1] (20 μg/ml antibody) was “bind to human HER3-expressing cells to a similar extent” each time. For the same molecule, the “inhibition of tumor growth” value in test [2] is reported as ~68%; in test [3] (NCr nude mice, IP biweekly 500 μg, 8 doses), ~86%; in test [3] (NPG mice, IP weekly 500 μg, 4 doses), ~85%; in test [4] it was ~74%. The cell proliferation result with N87 cells was “dose-dependent inhibition of cell proliferation”.
